# B1: wild-type canine cardiac calsequestrin (Casq2) [canine] / ER luminal domain of IRE1α (IRE1-NLD) [modified: covalently labeled with a red fluorescent tag (Monolith NT Protein Labeling Kit RED-NHS); covalently labeled with a red fluorescent … (parent complex)
# chain 1: EEGLNFPTYDGKDRVVSLTEKNFKQVLKKYDVLCLYYHESVSSDKVAQKQFQLKEIVLELVAQVLEHKDIGFVMVDAKKEAKLAKKLGFDEEGSLYVLKGDRTIEFDGEFAADVLVEFLLDLIEDPVEIINSKLEVQAFERIEDQIKLIGFFKSEESEYYKAFEEAAEHFQPYIKFFATFDKGVAKKLSLKMNEVDFYEPFMDEPIAIPDKPYTEEELVEFVKEHQRPTLRRLRPEDMFETWEDDLNGIHIVAFAERSDPDGYEFLEILKQVARDNTDNPDLSIVWIDPDDFPLLVAYWEKTFKIDLFKPQIGVVNVTDADSVWMEIPDDDDLPTAEELEDWIEDVLSGKINTEDDDNEEGDDGDDDEDDDDDDGNNSDEESNDDSDDDDE
# chain 2: IFGSTSTVTLPETLLFVSTLDGSLHAVSKRTGSIKWTLKEDPVLQVPTHVEEPAFLPDPNDGSLYTLGSKNNEGLTKLPFTIPELVQASPCRSSDGILYMGKKQDIWYVIDLLTGEKQQTLSSAFADSLCPSTSLLYLGRTEYTITMYDTKTRELRWNATYFDYAASLPEDDVDYKMSHFVSNGDGLVVTVDSESGDVLWIQNYASPVVAFYVWQREGLRKVMHINVAVETLRYLTFMSGEVGRITKWKYPFPKETEAKSKLTPTLYVGKYSTSLYASPSMVHEGVAVVPRGSTLPLLEGPQTDGVTIGDKGECVITPSTDVKFDPGLKSKNKLNYLRNYWLLIGHHETPLSASTKMLERFPNNLPKHRENVIPADSEKKSFEEVINLVDQTSENAPTTVSRDVEEKPAHAPARPEAPVDSMLKD
# Variants of: B1
# Assay: microscale thermophoresis (MST); IRE1-NLD covalently labeled with a red fluorescent tag; increasing amounts of Casq2 or Casq2 mutant; three independent measurements; parent: 4.3e+03 nM; read off a plot
row,Kd,Variant
1,~3.2 µM,chain 1 EEGLNFPTYDGKDRVVSLTEKNFKQVLKKYDVLCLYYHESVSSDKVAQKQFQLKEIVLELVAQVLEHKDIGFVMVDAKKEAKLAKKLGFDEEGSLYVLKGDRTIEFDGEFAADVLVEFLLDLIEDPVEIINSKLEVQAFERIEDQIKLIGFFKSEESEYYKAFEEAAEHFQPYIKFFATFDKGVAKKLSLKMNEVDFYEPFMDEPIAIPDKPYTEEELVEFVKEHQRPTLRRLRPEDMFETWEDDLNGIHIVAFAERSDPDGYEFLEILKQVARDNTDNPDLSIVWIDPDDFPLLVAYWEKTFKIDLFKSQIGVVNVTDADSVWMEIPDDDDLPTAEELEDWIEDVLSGKINTEDDDNEEGDDGDDDEDDDDDDGNNSDEESNDDSDDDDE [chain 1 P310S]
2,~4.8 µM,chain 1 EEGLNFPTYDGKDRVVSLTEKNFKQVLKKYDVLCLYYHESVSSDKVAQKQFQLKEIVLELVAQVLEHKDIGFVMVDAKKEAKLAKKLGFDEEGSLYVLKGDRTIEFDGEFAADVLVEFLLDLIEDPVEIINSKLEVQAFERIEDQIKLIGFFKSEESEYYKAFEEAAEHFQPYIKFFATFDKGVAKKLSLKMNEVDFYEPFMDEPIAIPDKPYTEEELVEFVKEHQRPTLRRLRPEDMFETWEDDLNGIHIVAFAERSDPDGYEFLEILKQVARDNTDNPDLSIVWIDPDDFPLLVAYWEKTFKIDLFKPQIGVVNVTDADSVWMEIPDDDGLPTAEELEDWIEDVLSGKINTEDDDNEEGDDGDDDEDDDDDDGNNSDEESNDDSDDDDE [chain 1 D332G]
3,~5.9 µM,chain 1 EEGLNFPTYDGKDQVVSLTEKNFKQVLKKYDVLCLYYHESVSSDKVAQKQFQLKEIVLELVAQVLEHKDIGFVMVDAKKEAKLAKKLGFDEEGSLYVLKGDRTIEFDGEFAADVLVEFLLDLIEDPVEIINSKLEVQAFERIEDQIKLIGFFKSEESEYYKAFEEAAEHFQPYIKFFATFDKGVAKKLSLKMNEVDFYEPFMDEPIAIPDKPYTEEELVEFVKEHQRPTLRRLRPEDMFETWEDDLNGIHIVAFAERSDPDGYEFLEILKQVARDNTDNPDLSIVWIDPDDFPLLVAYWEKTFKIDLFKPQIGVVNVTDADSVWMEIPDDDDLPTAEELEDWIEDVLSGKINTEDDDNEEGDDGDDDEDDDDDDGNNSDEESNDDSDDDDE [chain 1 R14Q]
4,~1.4 µM,chain 1 EEGLNFPTYDGKDRVVSLTEKNFKQVLKKYDVLCLYYHESVSSDKVAQKQFQLKEIVLELVAQVLEHKDIGFVMVDAKKEAKLAKKLGFDEEGSLYVLKGDRTIEFDGEFAADVLVEFLLDLIEDPVEIINSKLEVQAFERIEDQIKLIGFFKSEESEYYRAFEEAAEHFQPYIKFFATFDKGVAKKLSLKMNEVDFYEPFMDEPIAIPDKPYTEEELVEFVKEHQRPTLRRLRPEDMFETWEDDLNGIHIVAFAERSDPDGYEFLEILKQVARDNTDNPDLSIVWIDPDDFPLLVAYWEKTFKIDLFKPQIGVVNVTDADSVWMEIPDDDDLPTAEELEDWIEDVLSGKINTEDDDNEEGDDGDDDEDDDDDDGNNSDEESNDDSDDDDE [chain 1 K161R]
5,~3.3 µM,chain 1 EEGLNFPTYDGKDRVVSLTEKNFKQVLKKYDVLCLYYHESVSSDKVAQKQFQLKEIVLELVAQVLEHKDIGFVMVDAKKEAKLAKKLGFDEEGSLYVLKGDRTIEFDGEFAADVLVEFLLDLIEDPVEIINSKLEVQAFERIEDQIKLIGFFKSEESEYYKAFEEAAEHFQPYIKFFATFDKGVAKKLSLKMNEVDFYEPFMDEPIAIPDKPYTEEELVEFVKEHQRPTLRRLRPEDMFETWEDDLNGIHIVAFAERSDPDGYEFLEILKQVARDNTDNPDLSIVWIHPDDFPLLVAYWEKTFKIDLFKPQIGVVNVTDADSVWMEIPDDDDLPTAEELEDWIEDVLSGKINTEDDDNEEGDDGDDDEDDDDDDGNNSDEESNDDSDDDDE [chain 1 D288H]
6,~2.8 µM,chain 1 EEGLNFPTYDGKDRVVSLTEKNFKQVLKKYDVLCLYYHESVSSDKVAQKQFQLKEIVLELVAQVLEHKDIGFVMVDAKKEAKLAKKLGFDEEGSLYVLKGDRTIEFDGEFAADVLVEFLLDLIEDPVEIINSKLEVQAFERIEDQIKHIGFFKSEESEYYKAFEEAAEHFQPYIKFFATFDKGVAKKLSLKMNEVDFYEPFMDEPIAIPDKPYTEEELVEFVKEHQRPTLRRLRPEDMFETWEDDLNGIHIVAFAERSDPDGYEFLEILKQVARDNTDNPDLSIVWIDPDDFPLLVAYWEKTFKIDLFKPQIGVVNVTDADSVWMEIPDDDDLPTAEELEDWIEDVLSGKINTEDDDNEEGDDGDDDEDDDDDDGNNSDEESNDDSDDDDE [chain 1 L148H]
7,~4.3 µM,chain 1 EEGLNFPTYDGKDRVVSLTEKNFKQVLKKYDVLCLYYHESVSSDKVAQKQFQLKEIVLELVAQVLEHKDIGFVMVDAKKEAKLAKKLGFDEEGSLYVLKGDRTIEFDGEFAADVLVEFLLDLIEDPVEIINSKLEVQAFERIEDQIKLIGFFKSEESEYYKAFEEAAEHFQPYIKFFATFDKGVAKKLSLKMNEVDFYEPFMDEPIAIPDKPYTEEELVEFVKEHQRPTLRRLRPEDMFETWEDDLNGIHIVAFAERSDPDGYEFLEILKQVARDNTDNPDLSIVWIDPDDFPLLVAYWEKTFKIDLFKPQIRVVNVTDADSVWMEIPDDDDLPTAEELEDWIEDVLSGKINTEDDDNEEGDDGDDDEDDDDDDGNNSDEESNDDSDDDDE [chain 1 G313R]

# — paper PMC7582152 (2020)
